Experimental data: patent publication US20230416396A1 (Regeneron, published 2023)

What was measured:
[1] = molecular target: T1, human CD38 endogenously expressed on MOLP8 cells (human, UniProt P28907 1-300); test: flow cytometry on MOLP8 cells (endogenous hCD38), APC anti-human secondary
T1 construct: whole, on cells; also called hCD38
Procedure: The ability of the multispecific antigen binding molecules to bind cells was assessed using flow cytometry. Cell lines were chosen to determine the ability of both the anti-CD38 and anti-4-1BB arms to bind their targets. […] Binding was detected by using a labeled secondary antibody and measuring fluorescence on a flow cytometer.
HEK293 cells were lifted with trypsin, washed and resuspend in stain buffer (2% FBS in PBS). MOLP8 cells were washed and resuspended in stain buffer. Cells were added to wells of a 96 well V-bottom plate (3×10⁵ cells/well). A 1:4, 9-point, dose titration of test antibodies was diluted in stain buffer and added to cells to a final concentration ranging from 610 fM to 10 nM (a “no antibody” control was included as the ninth point (153fM), labeled as “secondary only”). Cells and antibodies were incubated for 30 min on ice and then washed in stain buffer. Cells were resuspended in 2 ug/ml allophycocyanin (APC) conjugated goat-anti human secondary antibody and incubated for 30 min on ice. Cells were then washed and resuspended in viability dye (according to the manufacturer's protocol) and incubated for 30 min on ice. Cells were then washed with stain buffer and resuspended in 2% PFA for 30 min on ice. After washing, cells were filtered and analyzed by flow cytometry to determine the geometric mean fluorescence intensity (gMFI), which was subsequently plotted using GraphPad Prism software. EC₅₀ values of the antibodies were determined from a 4-parameter logistic equation over a 9-point dose response curve (including secondary only control, representing the ninth point).

[2] = molecular target: T2, human 4-1BB expressed with a C-terminal murine Fc tag (human, UniProt Q07011 24-186); test: SPR Biacore 4000, h4-1BB.mFc captured by anti-mouse Fc, antibody as analyte, 25 C
T2 construct: also called h4-1BB.mFc; REGN3585; not shown: C-terminal murine Fc tag
Procedure: Equilibrium dissociation constants (KD values) for human 4-1BB expressed with a C-terminal murine Fc tag (h4-1BB.mFc, REGN3585) binding to purified anti-CD38×4-1BB 1+2 antibodies were determined using a real-time surface plasmon resonance biosensor using a Biacore 4000 instrument. […] All Biacore binding studies were performed in a buffer composed of 0.01M HEPES pH 7.4, 0.15M NaCl, 3 mM EDTA, 0.05% v/v Surfactant P20 (HBS-EP running buffer). Different concentrations of CD38×4-1BB 1+2 constructs prepared in HBS-EP running buffer (ranging from 100 to 6.25 nM in 4-fold serial dilutions) were injected over the h4-1BB.mFc (REGN3585) captured surface at a flow rate of 30 μL/minute. Antibody-reagent association was monitored for 5 minutes while dissociation in HBS-EP running buffer was monitored for 10 minutes. At the end of each cycle, the h4-1BB.mFc capture surface was regenerated using a 40 sec injection of 10 mM glycine, pH 1.5. All binding kinetics experiments were performed at 25° C.
Kinetic association (kₐ) and dissociation (kd) rate constants were determined by fitting the real-time sensorgrams to a 1:1 binding model using Cytiva Insight curve fitting software. Binding dissociation equilibrium constants (KD) and dissociative half-lives (t/2) were calculated from the kinetic rate constants as: […]

T2 sequence (Q07011 24-186 limits assumed): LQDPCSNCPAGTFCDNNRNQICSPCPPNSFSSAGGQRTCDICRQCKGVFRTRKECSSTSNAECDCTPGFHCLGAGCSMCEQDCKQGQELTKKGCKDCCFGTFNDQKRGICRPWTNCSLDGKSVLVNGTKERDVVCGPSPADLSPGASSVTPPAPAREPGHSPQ

MAX gMFI [1]: 120000 gMFI | 100 nM Ab Bind (RU) [2]: 206 RU | Kd [2]: 0.56 nM | koff [2]: 0.000351 s⁻¹ | kon [2]: 626000 M⁻¹ s⁻¹ | t½ [2]: 32.9 min
B1: REGN7647 (bispecific antibody, human IgG4 S228P, kappa)
heavy 1: EVQLVESGGGLVQPGRSLRLSCGASGFTFDDYVMHWVRQIPGKGLEWVAGISWNSGSIGYADSVKGRFTISRDNAKNSLYLQMNSLRAEDTALYFCAKDHIDPYSSSLYYYYGMDVWGQGTTVTVSSASTKGPSVFPLAPCSRSTSESTAALGCLVKDYFPEPVTVSWNSGALTSGVHTFPAVLQSSGLYSLSSVVTVPSSSLGTKTYTCNVDHKPSNTKVDKRVESKYGPPGGGGSGGGGSGGGGSEVQLVESGGGLVQPGRSLRLSCGASGFTFDDYVMHWVRQIPGKGLEWVAGISWNSGSIGYADSVKGRFTISRDNAKNSLYLQMNSLRAEDTALYFCAKDHIDPYSSSLYYYYGMDVWGQGTTVTVSSASTKGPSVFPLAPCSRSTSESTAALGCLVKDYFPEPVTVSWNSGALTSGVHTFPAVLQSSGLYSLSSVVTVPSSSLGTKTYTCNVDHKPSNTKVDKRVESKYGPPCPPCPAPPVAGPSVFLFPPKPKDTLMISRTPEVTCVVVDVSQEDPEVQFNWYVDGVEVHNAKTKPREEQFNSTYRVVSVLTVLHQDWLNGKEYKCKVSNKGLPSSIEKTISKAKGQPREPQVYTLPPSQEEMTKNQVSLTCLVKGFYPSDIAVEWESNGQPENNYKTTPPVLDSDGSFFLYSRLTVDKSRWQEGNVFSCSVMHEALHNRFTQKSLSLSPGK
heavy 2: EVQLVESGGGLVQPGRSLRLSCAASGFTFDDYAMHWVRQAPGKGLEWVSGISWKSDNIGYADSVKGRFTISRDNAKNSLYLQMNSLRAEDTALYYCAKALGGWKFDYYYGMDVWGQGTTVTVSSASTKGPSVFPLAPCSRSTSESTAALGCLVKDYFPEPVTVSWNSGALTSGVHTFPAVLQSSGLYSLSSVVTVPSSSLGTKTYTCNVDHKPSNTKVDKRVESKYGPPCPPCPAPPVAGPSVFLFPPKPKDTLMISRTPEVTCVVVDVSQEDPEVQFNWYVDGVEVHNAKTKPREEQFNSTYRVVSVLTVLHQDWLNGKEYKCKVSNKGLPSSIEKTISKAKGQPREPQVYTLPPSQEEMTKNQVSLTCLVKGFYPSDIAVEWESNGQPENNYKTTPPVLDSDGSFFLYSRLTVDKSRWQEGNVFSCSVMHEALHNHYTQKSLSLSLGK
light: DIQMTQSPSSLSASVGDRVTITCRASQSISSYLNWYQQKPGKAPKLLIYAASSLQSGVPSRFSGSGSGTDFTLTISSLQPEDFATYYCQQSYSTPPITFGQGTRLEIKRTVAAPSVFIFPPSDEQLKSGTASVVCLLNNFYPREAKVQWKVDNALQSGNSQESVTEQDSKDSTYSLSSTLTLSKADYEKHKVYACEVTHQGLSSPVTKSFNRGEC
notes: 1+2 format, hIgG4P-PVA; The linker between the two 4-1BB Fabs is (G4S)3v15; also called CD38x4-1BB (1 + 2), (G4S)3v15; 26812P2 x 35333P2 (IN) + 35333P2 (OUT)
